This note sets out measurements from article PMC5469197, “ANGUSTIFOLIA, a Plant Homolog of CtBP/BARS Localizes to Stress Granules and Regulates Their Formation” (Frontiers in Plant Science, 2017).

Experiment in all cases: co-IP; LUMIER in HEK293TN cells: Prot-A fusion co-transfected with Renilla luciferase fusion (AN always the luciferase fusion with the interactors); luciferase activity before (input) and after pulldown; percentage pulldown = pulldown/input x 100; empty vectors as negative control; positive if more than two times the background
Test [1] deals with T1, RNA BINDING PROTEIN 47B (RBP47B), Prot-A fusion (Arabidopsis thaliana, UniProt Q0WW84 1-435).
T1 construct: RBP47B, Arabidopsis thaliana, AT3G19130; CDS amplified from Col-0 cDNA; source: HEK293TN cells, transfected; not shown: Protein A (Staphylococcus aureus), N-terminal, kept
T1 sequence (looked up): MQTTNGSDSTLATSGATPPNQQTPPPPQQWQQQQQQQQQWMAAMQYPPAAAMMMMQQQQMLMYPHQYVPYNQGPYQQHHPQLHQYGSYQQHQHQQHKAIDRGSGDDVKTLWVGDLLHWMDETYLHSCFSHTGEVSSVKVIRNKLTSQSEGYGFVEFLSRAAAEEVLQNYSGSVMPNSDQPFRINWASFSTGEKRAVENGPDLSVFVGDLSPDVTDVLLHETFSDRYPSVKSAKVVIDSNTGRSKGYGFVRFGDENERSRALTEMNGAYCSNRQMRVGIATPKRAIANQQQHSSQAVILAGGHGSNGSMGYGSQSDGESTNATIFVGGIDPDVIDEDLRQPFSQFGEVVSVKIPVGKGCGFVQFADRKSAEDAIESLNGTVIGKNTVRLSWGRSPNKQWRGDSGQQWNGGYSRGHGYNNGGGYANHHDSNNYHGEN
The settings on record: partners not purified.

The target in test [2] is T2, PROTEIN MEI2-LIKE 5 (ATML5), Prot-A fusion (Arabidopsis thaliana, UniProt Q8VWF5 1-800).
T2 construct: Protein MEI2-like 5, Arabidopsis thaliana, AT1G29400; CDS amplified from Col-0 cDNA; source: HEK293TN cells, transfected; not shown: Protein A (Staphylococcus aureus), N-terminal, kept
T2 sequence (looked up): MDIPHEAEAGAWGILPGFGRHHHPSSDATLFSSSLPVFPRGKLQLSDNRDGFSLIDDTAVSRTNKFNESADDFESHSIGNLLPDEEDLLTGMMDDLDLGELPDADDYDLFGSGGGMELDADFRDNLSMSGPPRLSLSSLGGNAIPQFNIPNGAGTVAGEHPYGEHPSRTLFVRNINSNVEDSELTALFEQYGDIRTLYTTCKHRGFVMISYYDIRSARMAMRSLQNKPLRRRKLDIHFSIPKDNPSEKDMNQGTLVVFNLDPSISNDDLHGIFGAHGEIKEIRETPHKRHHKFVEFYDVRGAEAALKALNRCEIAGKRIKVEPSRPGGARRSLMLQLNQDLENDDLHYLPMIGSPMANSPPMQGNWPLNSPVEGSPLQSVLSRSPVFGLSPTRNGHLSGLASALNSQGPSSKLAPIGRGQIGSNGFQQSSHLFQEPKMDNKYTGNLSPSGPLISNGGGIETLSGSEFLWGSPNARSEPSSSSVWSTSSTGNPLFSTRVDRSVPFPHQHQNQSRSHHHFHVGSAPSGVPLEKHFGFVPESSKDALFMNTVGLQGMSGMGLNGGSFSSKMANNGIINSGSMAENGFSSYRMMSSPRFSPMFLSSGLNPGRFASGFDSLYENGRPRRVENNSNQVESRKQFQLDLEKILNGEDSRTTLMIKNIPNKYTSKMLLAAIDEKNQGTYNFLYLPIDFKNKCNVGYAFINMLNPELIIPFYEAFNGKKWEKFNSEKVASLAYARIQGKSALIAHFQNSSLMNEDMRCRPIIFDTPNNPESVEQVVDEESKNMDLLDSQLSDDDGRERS
Conditions: partners not purified.

Test [3] concerns the target T3, TANDEM CCCH ZINC FINGER (TZF) ATC3H14, Prot-A fusion (Arabidopsis thaliana, UniProt Q9C9N3 1-310).
T3 construct: Tandem CCCH zinc finger protein ATC3H14, Arabidopsis thaliana, AT1G66810; CDS amplified from Col-0 cDNA; source: HEK293TN cells, transfected; not shown: Protein A (Staphylococcus aureus), N-terminal, kept
T3 sequence (looked up): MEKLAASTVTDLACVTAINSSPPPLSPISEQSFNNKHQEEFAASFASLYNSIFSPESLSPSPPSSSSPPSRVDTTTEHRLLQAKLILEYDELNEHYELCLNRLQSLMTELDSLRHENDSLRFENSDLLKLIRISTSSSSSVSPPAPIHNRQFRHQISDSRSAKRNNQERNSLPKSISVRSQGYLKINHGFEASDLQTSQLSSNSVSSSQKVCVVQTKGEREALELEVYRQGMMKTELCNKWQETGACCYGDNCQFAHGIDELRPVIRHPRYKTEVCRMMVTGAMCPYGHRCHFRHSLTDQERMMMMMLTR
Conditions: partners not purified.

Test [4] has as its target PROTEIN KINASE SU… PROTEIN (AIK1), Prot-A fusion (Arabidopsis thaliana).

PROTEIN KINASE SU… PROTEIN (AIK1), Prot-A fusion (Arabidopsis thaliana), sequence (main, as listed by the source): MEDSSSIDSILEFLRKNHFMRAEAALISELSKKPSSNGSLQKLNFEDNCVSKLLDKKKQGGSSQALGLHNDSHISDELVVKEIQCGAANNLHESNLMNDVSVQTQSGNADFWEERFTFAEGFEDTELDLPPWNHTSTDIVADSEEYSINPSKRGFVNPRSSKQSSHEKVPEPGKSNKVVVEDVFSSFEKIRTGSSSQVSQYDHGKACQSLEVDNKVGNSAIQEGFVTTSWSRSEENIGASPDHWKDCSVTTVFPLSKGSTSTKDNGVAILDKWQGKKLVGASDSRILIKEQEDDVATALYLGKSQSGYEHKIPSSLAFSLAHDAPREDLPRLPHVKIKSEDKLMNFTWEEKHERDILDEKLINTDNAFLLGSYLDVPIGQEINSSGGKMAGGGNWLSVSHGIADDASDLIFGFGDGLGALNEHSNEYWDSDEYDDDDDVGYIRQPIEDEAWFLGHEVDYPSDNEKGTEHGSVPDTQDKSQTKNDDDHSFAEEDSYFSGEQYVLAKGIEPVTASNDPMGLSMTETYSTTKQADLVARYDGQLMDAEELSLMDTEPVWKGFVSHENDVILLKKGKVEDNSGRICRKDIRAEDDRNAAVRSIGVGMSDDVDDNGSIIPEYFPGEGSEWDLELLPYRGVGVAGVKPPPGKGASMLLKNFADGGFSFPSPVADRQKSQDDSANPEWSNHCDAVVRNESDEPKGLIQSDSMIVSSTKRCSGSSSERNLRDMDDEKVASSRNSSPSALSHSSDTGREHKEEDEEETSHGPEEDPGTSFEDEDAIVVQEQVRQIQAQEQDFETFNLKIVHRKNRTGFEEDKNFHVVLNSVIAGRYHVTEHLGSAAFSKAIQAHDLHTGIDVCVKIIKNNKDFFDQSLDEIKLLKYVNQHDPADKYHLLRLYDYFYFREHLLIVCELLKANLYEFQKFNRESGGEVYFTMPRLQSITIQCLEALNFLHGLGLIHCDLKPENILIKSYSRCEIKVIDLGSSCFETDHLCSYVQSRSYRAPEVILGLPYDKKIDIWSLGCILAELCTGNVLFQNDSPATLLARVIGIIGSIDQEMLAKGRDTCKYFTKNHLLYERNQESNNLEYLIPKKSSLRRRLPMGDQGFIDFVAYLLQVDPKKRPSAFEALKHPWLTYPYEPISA

B1: AN, Renilla luciferase fusion (LUMIER) (natural protein, Arabidopsis thaliana, UniProt O23702 1-636, looked up)
chain: MSKIRSSATMPHRDQPSPASPHVVTLNCIEDCALEQDSLAGVAGVEYVPLSRIADGKIESATAVLLHSLAYLPRAAQRRLRPHQLILCLGSADRAVDSTLAADLGLRLVHVDTSRAEEIADTVMALILGLLRRTHLLSRHALSASGWLGSLQPLCRGMRRCRGMVLGIVGRSVSARYLASRSLAFKMSVLYFDVPEGDEERIRPSRFPRAARRMDTLNDLLAASDVISLHCALTNDTVQILNAECLQHIKPGAFLVNTGSCQLLDDCAVKQLLIDGTIAGCALDGAEGPQWMEAWVKEMPNVLILPRSADYSEEVWMEIREKAISILHSFFLDGVIPSNTVSDEEVEESEASEEEEQSPSKHEKLAIVESTSRQQGESTLTSTEIVRREASELKESLSPGQQHVSQNTAVKPEGRRSRSGKKAKKRHSQQKYMQKTDGSSGLNEESTSRRDDIAMSDTEEVLSSSSRCASPEDSRSRKTPLEVMQESSPNQLVMSSKKFIGKSSELLKDGYVVALYAKDLSGLHVSRQRTKNGGWFLDTLSNVSKRDPAAQFIIAYRNKDTVGLRSFAAGGKLLQINRRMEFVFASHSFDVWESWSLEGSLDECRLVNCRNSSAVLDVRVEILAMVGDDGITRWID
notes: ANGUSTIFOLIA (AN), Arabidopsis thaliana, AT1G01510; CDS amplified from Col-0 cDNA; in the dimerisation test the second copy must have been the N-terminal protein A fusion (surmised from the LUMIER format); also called wild-type AN; source: HEK293TN cells, transfected; not shown: Renilla reniformis luciferase, N-terminal, kept
Take B1: the “fold change from background” value was 3.53 fold in test [1], 5.04 fold in test [2], 4.92 fold in test [3] and 223 fold in test [4]. The percentage pulldown in test [1] was found to be 0.33%; in test [2], 0.47%; in test [3] it was 0.47%; in test [4], 36%.
